The values below come from PMC12703665, “A Trifunctional, Rare-Earth Theranostic Chelator Platform to Enable Diagnostic Nuclear Imaging, Surgical Resection, and Radiotherapy” (Journal of the American Chemical Society, 2025).

The series concerns PC-3 PIP/flu (PSMA+/PSMA–) tumor xenografts. Put plainly: in vivo. The procedure: For in vivo evaluation, athymic nude mice-bearing bilateral PC-3 PIP/flu (PSMA^+/PSMA^–) tumor xenografts were used (Figure ).
5.1.1 Urine metabolite analysis
Metabolite analysis was performed by analyzing aliquots of 100 µL of mouse urine collected during biodistribution studies. If the collected urine volume was less than 100 µL, 1X DPBS was added in order to bring it up to a final volume of 100 µL. In cases where the radioactivity present in urine decayed to levels too low for detection by HPLC, fractions eluted from the radioHPLC were collected every 30 seconds, and the amount of radioactivity was estimated via gamma counting (Hidex Automatic Gamma Counter). The chromatogram was then reconstructed by plotting the recorded counts per minute recorded for each fraction […]
5.2 In vitro optical imaging
Tumor tissues were harvested from male, nude, athymic mice bearing xenografts from PC3-PIP (PSMA+) and PC3-flu (PSMA-) were fixed for (24) hours in 10% neutral buffered formalin, processed and embedded into paraffin blocks. Tissues were sectioned at 5µm, dried and then deparaffinized with a 25-minute oven bake at 60°C, followed by a series of xylene and alcohol washes
Antigens were prepared in PerkinElmer’s 1X Antigen Retrieval pH 9.0 (AR900250ML) for 8 minutes in the microwave. Tissue sections were blocked with 1X Antibody Diluent/Block buffer (Akoya).
Ab-PSMA, natEu-pepa-pic2-C-Hex-KuE and DAPI staining.
Tissues were stained with Ab-PSMA (Ventana 760-6076; 11.75 µg/mL; 100uL per slide) for 30 minutes at room temperature. Slides were washed with TBS-T and secondary goat anti-rabbit was applied for 10 minutes at room temperature. Slides were washed with TBS-T and Akoya’s Opal dye 520 was applied for 10 minutes at room temperature. Antigen retrieval and blocking steps were performed again.
An aqueous solution of natEu-pepa-pic2-C-Hex-KuE (10 µM) was diluted at 1:1 with 1X Diluent/Block (Akoya) and 100 µL were applied per slide for 2 hours at room temperature. For DAPI staining, DAPI working solution (Akoya) was applied for 10 minutes at room temperature before mounting with ProLong™ Gold Antifade Mountant. Slides were imaged by Nuance Multispectral Scope at 20x objective.
5.3 In vivo biodistribution in PSMA +/- mice models, PET-CT and SPECT imaging.
Male, nude, athymic mice were purchased from Jackson Laboratory. Ten days preceding the imaging study, mice were implanted with 1 × 10^6 cells (PC-3 PIP on the right, PC-3 flu on the left shoulder) in 100 µL of a 1:2 mixture of DPBS 1X/matrigel matrix subcutaneously.
A solution of 100 µL of labeled radiotracer was administered via tail vein injection into 8–10-week-old male nude mice (n = 4 per cohort) bearing PSMA+/- tumors.
For biodistribution studies, mice were euthanized at 2 hours (n=4) post-injection of the radio tracer. Organs were extracted, intestinal content removed, and activity assessed via a gamma counter. Biodistribution analysis values are represented as percentage of injected dose per gram of organ weight (% ID/g).

Where [1] appears, read: 2 h post injection, n = 4, listed as [86Y]YIII-pepa-pic2-C-Hex-KuE.

As to `COCCOCCOCCOc1ccc(C#Cc2cc(CN3CCN(Cc4cccc(C(=O)O)n4)CCN(Cc4cc(SC[C@H](N)C(=O)NCCCCCC(=O)NCCCC[C@H](NC(=O)N[C@@H](CCC(=O)O)C(=O)O)C(=O)O)cc(C(=O)O)n4)CC3)nc(C(=O)O)c2)cc1` [[86Y]Y-pepa-pic2-C-Hex-KuE, metal not drawn], under setting [1], the Blood stood at 1.22 ± 1.01 % ID/g, the Bone is reported as 0.74 ± 0.21 % ID/g, the Heart was determined as 0.54 ± 0.25 % ID/g and the “Large Intestine” value turned out to be 1.64 ± 0.79 % ID/g. In addition, under setting [1], the Liver amounted to 1.00 ± 0.32 % ID/g, the Lungs is recorded as 1.96 ± 0.84 % ID/g, the Muscle worked out at 0.35 ± 0.13 % ID/g and the “Small Intestine” value turned out to be 0.59 ± 0.25 % ID/g. Under setting [1], this molecule displayed a Spleen of 2.43 ± 1.34 % ID/g. The “Tumor +” value (PSMA+ tumor, 2 h post injection, n = 4, listed as [86Y]YIII-pepa-pic2-C-Hex-KuE) was 12.53 ± 2.95 % ID/g. Moreover, for the setting “PSMA- tumor, 2 h post injection, n = 4, listed as [86Y]YIII-pepa-pic2-C-Hex-KuE”, the Tumor - was 1.20 ±0.45 % ID/g. The “enhancement of probe localization in kidneys compared to tumor tissue” value (imaging and biodistribution data) is on record as 6–10 fold.
